One experiment concerns the target T1, hFc-human LIGHT (human).
T1 construct: also called hFc-huLIGHT
As to the kind of experiment: competition ELISA, LTβR-His coated, hFc-huLIGHT added. Background: ELISA stands for enzyme-linked immunosorbent assay.

The target in experiment [1] is T2, His-human LIGHT (human).
T2 construct: also called His-huLIGHT; free LIGHT
T2 chain: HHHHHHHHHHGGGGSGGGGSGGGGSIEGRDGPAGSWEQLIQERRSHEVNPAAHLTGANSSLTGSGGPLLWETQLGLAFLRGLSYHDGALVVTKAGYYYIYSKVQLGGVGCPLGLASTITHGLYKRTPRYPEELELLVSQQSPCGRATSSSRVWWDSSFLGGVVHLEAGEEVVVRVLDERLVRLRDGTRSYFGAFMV
The experiment in a line: SPR, Biacore 8K, antibody on CM5 chip, human LIGHT. A general note: SPR reads the build-up and loss of mass on a sensor chip optically.

Experiment [2] deals with T2, His-human LIGHT. The experiment in a line: cell-based or functional assay.
Experiment [3] concerns the target T3, His-cynomolgus monkey LIGHT (cynomolgus monkey).
T3 construct: also called His-cynoLIGHT
T3 chain: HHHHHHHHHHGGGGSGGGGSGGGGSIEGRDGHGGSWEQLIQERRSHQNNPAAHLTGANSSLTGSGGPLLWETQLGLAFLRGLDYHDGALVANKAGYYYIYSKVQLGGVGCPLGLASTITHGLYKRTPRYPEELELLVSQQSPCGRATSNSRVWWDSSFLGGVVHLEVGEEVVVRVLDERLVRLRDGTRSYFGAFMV
As to the kind of experiment: ELISA, His-cynoLIGHT coated.

For experiment [4], the target named is LIGHT on the surface of HEK293-LIGHT stable cells (human, UniProt O43557 1-240). The experiment in a line: cell-based or functional assay.
For experiment [5], the target named is T2, His-human LIGHT. As to the kind of experiment: ELISA, His-huLIGHT coated.
Experiment [6] deals with T2, His-human LIGHT. As to the kind of experiment: cell-based or functional assay.
Experiment [7] has as its target T2, His-human LIGHT. As to the kind of experiment: SPR, Biacore 8K, antibody on CM5 chip.
For experiment [8], the target named is T3, His-cynomolgus monkey LIGHT. As to the kind of experiment: SPR, Biacore 8K, antibody on CM5 chip.
In experiment [9] the target is T2, His-human LIGHT. As to the kind of experiment: cell-based or functional assay.
Experiment [10] addresses T2, His-human LIGHT. The experiment in a line: ELISA, His-huLIGHT coated.
The target in the next experiment is T4, His-mouse LIGHT (mouse).
T4 construct: also called His-musLIGHT
T4 chain: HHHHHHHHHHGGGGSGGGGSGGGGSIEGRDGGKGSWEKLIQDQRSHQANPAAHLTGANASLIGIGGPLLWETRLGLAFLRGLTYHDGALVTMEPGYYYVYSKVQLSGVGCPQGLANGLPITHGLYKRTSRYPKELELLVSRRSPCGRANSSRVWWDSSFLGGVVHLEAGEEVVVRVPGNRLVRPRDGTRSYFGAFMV
As to the kind of experiment: ELISA, His-musLIGHT coated.

We go through six molecules from patent EP4596580A1 (Staidson (Beijing) Biopharmaceuticals Co., Ltd., dated 2025).

Like-named read-outs stand apart in the source and are kept apart here.

B1: hum_LT-m37-5 (antibody, human IgG4, V domains shown)
VH: QVQLVQSGAEVKKPGASVKVSCKASGYSFTGYFINWVRQAPGQSLEWIGRIYPYNVNTFYNQNFKGRATLTADKSTSTAYMELSSLRSEDTAVYYCGRGTHYYGSSGAMDYWGQGTLVTVSS
VL: EIVMTQSPATLSVSPGERATLSCKASQNVGTAVAWYQQKPGQSPRLLIYSASNRYTGIPARFSGSGSGTEFTLTISSLQSEDFAVYFCQQYSSYPYTFGGGTKVEIK
notes: humanized from LT-m37
The term IC50 denotes the midpoint of a concentration-inhibition curve. Usually Kd stands for a measure of binding affinity in units of concentration. The term koff denotes a measure of how fast the partners let go of each other. In general, kon refers to a measure of how fast the partners come together. One may read the EC50 as the concentration at which the effect is half-maximal. With B1, the half-maximal inhibitory concentration (IC50) with hFc-human LIGHT is 0.0771 nM. In the experiment with His-human LIGHT [1], the Kd amounted to 0.0575 nM, the off-rate constant (koff) turned out to be 6.34e-05 s⁻¹ and the on-rate (kon) turned out to be 1.1e+06 M⁻¹ s⁻¹. In addition, the “IC50, HVEM NF-κB luciferase reporter, free LIGHT” value with His-human LIGHT [2] is 0.062 µg/mL. This molecule also yielded an EC50 in experiment [3] of 0.0513 nM. In addition, the “IC50, LTβR NF-κB luciferase reporter, HEK293-LIGHT cells” value (“IC50 … HEK293-LIGHT cells” below) in [4] was determined as 2.22 µg/mL. Further, the EC50 with His-human LIGHT [5] is 0.0837 µg/mL. In the experiment with His-human LIGHT [6], the “IC50, LTβR NF-κB luciferase reporter, free LIGHT” value turned out to be 0.16 µg/mL.

B2: hum_LT-m37-1 (antibody, human IgG4, V domains shown)
VH: QVQLVQSGAEVKKPGASVKVSCKASGYSFTGYFINWVRQAPGQSLEWIGRIYPYNVNTFYNQNFKGRATLTADKSTSTAYMELSSLRSEDTAVYYCGRGTHYYGSSGAMDYWGQGTLVTVSS
VL: EIVLTQSPATLSVSPGERATLSCKASQNVGTAVAWYQQKPGQSPRLLIYSASNRYTGIPARFSGSGSGTEFTLTISSLQSEDFAVYFCQQYSSYPYTFGGGTKVEIK
notes: humanized from LT-m37
For B2, in the experiment with hFc-human LIGHT, the IC50 is 0.0754 nM. The “IC50, HVEM NF-κB luciferase reporter, free LIGHT” value in the experiment with His-human LIGHT [2] was 0.118 µg/mL. In addition, the EC50 worked out at 0.0468 nM in [3] and 0.0662 µg/mL with His-human LIGHT [5]. For the same molecule, the “IC50 … HEK293-LIGHT cells” value in experiment [4] amounted to 5.39 µg/mL. In the experiment with His-human LIGHT [6], the “IC50, LTβR NF-κB luciferase reporter, free LIGHT” value was 0.269 µg/mL.

B3: hum_LT-m37-6 (antibody, human IgG4, V domains shown)
VH: QVQLVQSGAEVKKPGASVKVSCKASGYSFTGYFINWVRQAPGQGLEWIGRIYPYNVNTFYNQNFKGRATLTADKSTSTAYMELSSLRSEDTAVYYCGRGTHYYGSSGAMDYWGQGTLVTVSS
VL: EIVMTQSPATLSVSPGERATLSCKASQNVGTAVAWYQQKPGQSPRLLIYSASNRYTGIPARFSGSGSGTEFTLTISSLQSEDFAVYFCQQYSSYPYTFGGGTKVEIK
notes: humanized from LT-m37
Turning to B3, the IC50 in the experiment with hFc-human LIGHT is 0.0753 nM. In the experiment with His-human LIGHT [1], this molecule showed a Kd of 0.0408 nM, a koff of 5.25e-05 s⁻¹ and a kon of 1.29e+06 M⁻¹ s⁻¹. Also, the “IC50, HVEM NF-κB luciferase reporter, free LIGHT” value with His-human LIGHT [2] turned out to be 0.0518 µg/mL. Further, the half-maximal effective concentration (EC50) in experiment [3] amounted to 0.0588 nM. For the same molecule, in experiment [4], the “IC50 … HEK293-LIGHT cells” value was 1.86 µg/mL. In addition, a half-maximal effect with His-human LIGHT [5] (EC50) was put at 0.0939 µg/mL. Also, in the experiment with His-human LIGHT [6], the “IC50, LTβR NF-κB luciferase reporter, free LIGHT” value was 0.224 µg/mL.

B4: LT-m55 (antibody, human IgG4, V domains shown)
VH: EVQLQQSGAELVKPGASVKLSCKASGYTFATYYMYWVKQRPGQGLEWIGEINPTNGGTIFNEKFKTKATLTVDKSSSTAYMQLSSLTSEDSAVYYCARGNWPYWSFDVWGAGTSVTVSS
VL: DIVLTQSPASLAVSLGQRATISCKASQSVDFDGDNYMNWYQQKPGQPPKLLIYAASNLDSGIPARFSASGSGTDFTLNIHPVEEEDAATYYCQQSIEDPWTFGGGTKLEIK
In the experiment with His-human LIGHT [7], B4 came in with a Kd of 0.0685 nM, a dissociation rate constant (koff) of 6.01e-05 s⁻¹ and an association rate constant (kon) of 877000 M⁻¹ s⁻¹. In experiment [8], this molecule displayed a Kd of 0.0613 nM, a koff of 5.86e-05 s⁻¹ and an on-rate (kon) of 956000 M⁻¹ s⁻¹. In the experiment with His-human LIGHT [9], the “IC50, HVEM NF-κB luciferase reporter (293T-HVEM-NF-κB-Luc), free LIGHT” value (shortened to “IC50 … (293T-HVEM-NF-κB-Luc), free LIGHT”) stood at 0.264 µg/mL. In addition, the midpoint of the response with His-human LIGHT [10], the EC50, lay at 0.0332 µg/mL. In the experiment with His-mouse LIGHT, the binding result is “no binding”.

B5: LT-m58 (antibody, human IgG4, V domains shown)
VH: QVQLQQSGAEMASPGASVTLSCKASGYTFIDHIMNWVKKRPGQGLEWIGRIYPVSGETNYNQKFMGKATFSVDRSSSTVYMVLNSLTSEDPAVYYCGRGSYYWNAMDYWGQGTTLTVSS
VL: DIVMTQSPASLAVSLGQRATISCKASQSVDFDGDSYMNWYQQKPGQPPKLLIYSASNLESGIPARFSGSGSGTDFTLNIHPVEEEDAATYYCQQSIEDPWTFGGGTKLEIK
In the experiment with His-human LIGHT [7], B5 yielded a dissociation constant Kd of 0.0696 nM, an off-rate (koff) of 2.67e-05 s⁻¹ and a kon of 385000 M⁻¹ s⁻¹. In experiment [8], this molecule came in with a Kd of 0.0347 nM, a koff of 1.24e-05 s⁻¹ and an on-rate constant (kon) of 357000 M⁻¹ s⁻¹. Also, the “IC50 … (293T-HVEM-NF-κB-Luc), free LIGHT” value with His-human LIGHT [9] was 0.318 µg/mL. Moreover, the EC50 with His-human LIGHT [10] was found to be 0.0243 µg/mL. The binding result with His-mouse LIGHT is listed as “no binding”.

B6: LT-m85 (antibody, human IgG4, V domains shown)
VH: EVQLQQSGAELVKPGASVKMSCKASGYTFTSYNVHWVKQTPGQGLEWIGAVYPGNGDTSYNQKFKGKATLTADKSSNTAYMQLSSLTSEDSAVYYCARGSYYYTSSYFDHWGQGTTLTVSS
VL: DIVLTQSPASLAVSLGQRATISCKASQSVDFDGDSYMNWYQQKPGQPPKLLIYTASNLESGIPARFTGSGSGTDFTLNIHPVEEEDAATYYCQQSYEDPFTFGSGTKLEIK
For B6, in the experiment with His-human LIGHT [7], binding was put at a Kd of 0.0674 nM, the dissociation rate constant (koff) was 5.28e-05 s⁻¹ and the kon turned out to be 783000 M⁻¹ s⁻¹. In [8], the equilibrium dissociation constant (Kd) is 0.0601 nM, the koff amounted to 6.72e-05 s⁻¹ and the kon stood at 1.12e+06 M⁻¹ s⁻¹. The “IC50 … (293T-HVEM-NF-κB-Luc), free LIGHT” value in the experiment with His-human LIGHT [9] was 0.124 µg/mL. Further, the 50% effective concentration (EC50) with His-human LIGHT [10] stood at 0.0121 µg/mL. In addition, the binding result with His-mouse LIGHT is reported as “no binding”.
